US20230348603A1

Legend:
Human VSIG4-L-Fc (human) [1] = experiment: BLI cross-blocking on hVSIG4-L-Fc, competitor 12A12 first
Human VSIG4-L-Fc (human) [2] = experiment: BLI cross-blocking on hVSIG4-L-Fc, competitor 14C05 first

Chain of Human VSIG4-L-Fc (human) (chain, as listed by the source limits assumed): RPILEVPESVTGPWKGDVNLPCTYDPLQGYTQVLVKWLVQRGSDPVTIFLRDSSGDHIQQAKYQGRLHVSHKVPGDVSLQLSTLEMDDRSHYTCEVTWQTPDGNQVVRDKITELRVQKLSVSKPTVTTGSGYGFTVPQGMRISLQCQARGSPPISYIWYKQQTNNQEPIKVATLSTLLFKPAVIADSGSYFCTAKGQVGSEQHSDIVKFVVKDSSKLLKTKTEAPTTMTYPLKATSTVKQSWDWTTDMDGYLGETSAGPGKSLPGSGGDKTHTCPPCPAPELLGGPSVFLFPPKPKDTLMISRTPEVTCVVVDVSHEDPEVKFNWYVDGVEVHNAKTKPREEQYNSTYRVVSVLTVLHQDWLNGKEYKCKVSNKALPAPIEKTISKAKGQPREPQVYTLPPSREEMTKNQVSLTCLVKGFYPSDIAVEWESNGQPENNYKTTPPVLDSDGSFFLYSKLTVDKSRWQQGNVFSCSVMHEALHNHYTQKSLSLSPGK

Substance: isotype control antibody (Table 16)
- binding signal (nm shift) (Human VSIG4-L-Fc (human) [1]): 0 nm
- binding signal (nm shift) (Human VSIG4-L-Fc (human) [2]): 0 nm
